Test results from patent publication US7374919B2 (GlycoZym ApS, priority 1998, dated 2008).

Key:
Assay type in all cases: biochemical
Conditions in all cases: glycoproteins at 10 mg/ml
[1] = molecular target: T1, Bovine milk β4Gal-T (Bos taurus, UniProt P08037); experiment: Bovine milk β4Gal-transferase activity assay (control enzyme)
T1 construct: Purified bovine milk enzyme; purchased Sigma; host or cells: bovine milk
T1 sequence (P08037 79-402 limits assumed): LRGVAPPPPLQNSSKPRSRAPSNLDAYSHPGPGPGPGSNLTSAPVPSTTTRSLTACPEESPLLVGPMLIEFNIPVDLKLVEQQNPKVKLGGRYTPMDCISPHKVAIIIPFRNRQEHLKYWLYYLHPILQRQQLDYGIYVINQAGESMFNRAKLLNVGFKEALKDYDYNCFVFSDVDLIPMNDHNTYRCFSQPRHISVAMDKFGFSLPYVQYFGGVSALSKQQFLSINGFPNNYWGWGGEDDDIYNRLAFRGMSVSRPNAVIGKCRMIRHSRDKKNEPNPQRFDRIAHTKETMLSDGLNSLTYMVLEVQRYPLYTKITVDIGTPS
Method: (§1) Standard assays were performed in […] total reaction mixtures containing 25 mM Tris (pH 7.5), 10 mM MnCl2, 0.25% Triton X-100, […] UDP-[^14C]-Gal (2,300 cpm/nmol) (Amersham), and varying concentration of acceptor substrates (Sigma) (see Table I for structures). The soluble constructs were assayed with […] of culture supernatant from infected cells, whereas the full length construct was assayed with 1% Triton X-100 homogenates of washed cells. Bovine milk P1,4Gal-transferase (Sigma) was used as control.
(§2) Reaction products were quantified by Dowex-1 chromatography. Assays with hen egg Ovalbumin (Sigma), asialo-fetuin (Sigma), and asialo-agalacto-fetuin (Sigma, treated with bgalactosidase) were performed with the standard reaction mixture modified to contain […] UDP-Gal, 54 mM NaCl, and 0.5 mg Ovalbumin. The transfer of Gal was evaluated after precipitation by filtration through Whatman GF/C glass fiber filters.

[2] = molecular target: T2, β4Gal-T3 (Homo sapiens, UniProt O60512); experiment: β4Gal-T3 galactosyltransferase activity assay (soluble enzyme, Sf9 media)
T2 construct: media from Sf9 cells expressing secreted forms of either β4Gal-T2 or -T3 were used as enzyme sources; secretion signal of vector pAcGP67 (gp67 leader; own knowledge of the vector) (N); made in house; host or cells: Sf9 cells, baculovirus; unpurified culture supernatant
Method: An expression construct designed to encode amino acid residues 31-372 of β4Gal-T2 was prepared by RT-PCR with mRNA from Colo205 cell line, using the primer pair EBER100FOR (5′-[…]; SEQ ID NO: 9) and EBER114 (5′-[…]; SEQ ID NO: 10) with BamH1 restriction sites (FIG. 2). The PCR product were cloned into the BamHI site of pAcGP67 (Pharmingen), and the construct sequenced to verify correct insertion and sequence. The plasmid pAcGP67-β4Gal-T2-sol was co-transfected with Baculo-Goldä DNA (Pharmingen) as described previously (Bennett et al., 1996). Recombinant Baculo-virus were obtained after two successive amplifications in Sf9 cells grown in serum-containing medium, and titres of virus were estimated by titration in 24-well plates with monitoring of enzyme activities. Controls included pAcGP67-β4Gal-T3-sol (Almeida et al., 1997) and pAcGP67-GalNAc-T3-sol (Bennett et al., 1996).
as §1, §2

[3] = molecular target: T3, β4Gal-T2 (Homo sapiens, UniProt O60909); experiment: β4Gal-T2 galactosyltransferase activity assay (soluble enzyme, media of infected Sf9 cells)
T3 construct: An expression construct designed to encode amino acid residues 31-372 of β4Gal-T2 was prepared by RT-PCR; secretion signal of vector pAcGP67 (gp67 leader; own knowledge of the vector) (N); made in house; host or cells: Sf9 (Spodoptera frugiperda) cells, baculovirus; unpurified culture supernatant
T3 sequence (O60909 31-372): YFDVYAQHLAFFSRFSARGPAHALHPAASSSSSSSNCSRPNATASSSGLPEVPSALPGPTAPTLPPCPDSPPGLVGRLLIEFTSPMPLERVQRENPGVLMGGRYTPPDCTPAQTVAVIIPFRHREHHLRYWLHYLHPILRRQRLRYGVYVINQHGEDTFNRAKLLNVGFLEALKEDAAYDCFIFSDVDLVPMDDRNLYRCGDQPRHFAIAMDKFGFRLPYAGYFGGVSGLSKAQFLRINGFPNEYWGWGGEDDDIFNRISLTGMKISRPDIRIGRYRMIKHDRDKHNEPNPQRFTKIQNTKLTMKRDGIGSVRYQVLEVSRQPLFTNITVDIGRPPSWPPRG
From the text: The PCR product were cloned into the BamHI site of pAcGP67 (Pharmingen), and the construct sequenced to verify correct insertion and sequence. The plasmid pAcGP67-β4Gal-T2-sol was co-transfected with Baculo-Goldä DNA (Pharmingen) as described previously (Bennett et al., 1996). Recombinant Baculo-virus were obtained after two successive amplifications in Sf9 cells grown in serum-containing medium, and titres of virus were estimated by titration in 24-well plates with monitoring of enzyme activities. Controls included pAcGP67-β4Gal-T3-sol (Almeida et al., 1997) and pAcGP67-GalNAc-T3-sol (Bennett et al., 1996).
as §1
Reaction products were quantified by Dowex-1 chromatography. […] The transfer of Gal was evaluated after precipitation by filtration through Whatman GF/C glass fiber filters.

T2 sequence (O60512 32-393 limits assumed): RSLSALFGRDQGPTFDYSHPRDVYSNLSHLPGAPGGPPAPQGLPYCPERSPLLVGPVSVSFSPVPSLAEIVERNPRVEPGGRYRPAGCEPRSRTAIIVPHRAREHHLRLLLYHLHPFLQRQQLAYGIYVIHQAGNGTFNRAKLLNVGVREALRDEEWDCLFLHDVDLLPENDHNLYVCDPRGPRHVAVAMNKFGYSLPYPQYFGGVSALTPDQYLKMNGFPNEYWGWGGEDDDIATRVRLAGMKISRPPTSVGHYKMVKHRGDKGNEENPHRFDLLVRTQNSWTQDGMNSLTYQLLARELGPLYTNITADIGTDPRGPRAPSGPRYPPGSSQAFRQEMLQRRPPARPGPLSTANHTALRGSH

Bovine milk β4Gal-T activity with acceptor substrate [1]: 0.7 nmol/min/µg | β4Gal-T3 activity with acceptor substrate [2]: 1.0 nmol/min/mL | β4Gal-T2 activity with acceptor substrate [3]: 2.0 nmol/min/mL
B1: Hen egg albumin: glycoprotein acceptor, hen egg Ovalbumin (Sigma) (protein, UniProt P01012 2-386, looked up)
Ovalbumin: GSIGAASMEFCFDVFKELKVHHANENIFYCPIAIMSALAMVYLGAKDSTRTQINKVVRFDKLPGFGDSIEAQCGTSVNVHSSLRDILNQITKPNDVYSFSLASRLYAEERYPILPEYLQCVKELYRGGLEPINFQTAADQARELINSWVESQTNGIIRNVLQPSSVDSQTAMVLVNAIVFKGLWEKAFKDEDTQAMPFRVTEQESKPVQMMYQIGLFRVASMASEKMKILELPFASGTMSMLVLLPDEVSGLEQLESIINFEKLTEWTSSNVMEERKIKVYLPRMKMEEKYNLTSVLMAMGITDVFSSSANLSGISSAESLKISQAVHAAHAEINEAGREVVGSAEAGVDAASVSEEFRADHPFLFCIKHIATNAVLFFGRCVSP
